The text below walks through data of the supplement of paper PMC10126150.

The subject of this data set is ATP. The experiment in a line: switch fluorescence ratio, 500 uM ATP over buffer (Cy3 cluster intensity, sum of 5 cycles each) (fold (ratio)); higher = stronger signal-on switching upon ATP binding; sequences stand for … in TCGTCGGCAGCGTCAGATGTGTATAAGAGACAGTTTTTTTTTTTTTTTTTTTTTTTTT…TC. Conditions: aptamer strand: ATP DNA aptamer (quencher-CACCTGGGGGAGTATTGCGGAGGAAGG + anchor), 100 nM annealed; ATP concentration: 500 uM. The method in brief:
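Cy3-labelled switching-strand clusters on a modified Illumina MiSeq flow-cell were annealed to 100 nM quencher-labelled ATP aptamer, imaged in selection buffer, then imaged after 15 min with 500 uM ATP at 22 °C. Five buffer/ATP cycles ran, with NaOH stripping and re-annealing between them. The fluorescence ratio is summed target-cycle over summed buffer-cycle Cy3 intensity per cluster, averaged per switch-domain sequence. Clusters outside 100-1000 RFU were excluded.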

± gives the standard deviation of the averaged measurements.
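Note: ATP exposure 15 min at 22 °C before imaging.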

Regarding GAAGTTGCCC, the switch fluorescence ratio was determined as 0.994 ± 0.028.
On to GAAGTTGGGA, for which the switch fluorescence ratio worked out at 0.9857 ± 0.0095.
As to GAAGTTTGTG, the switch fluorescence ratio came to 1.019 ± 0.0075.
Take GAAGTTTGTT: the switch fluorescence ratio was determined as 0.98 ± 0.026.
The result for GAATAAAGTT reads 0.986 ± 0.046.
On to GAATAAATAG, for which the switch fluorescence ratio amounted to 1 ± 0.024.
With GAATAACTAG, the switch fluorescence ratio was determined as 0.9776 ± 0.0088.
As to GAATAGGGGC, the switch fluorescence ratio is 0.965 ± 0.01.
In the case of GAATATACGC, the switch fluorescence ratio was found to be 1.04 ± 0.021.
For GAATATATGT, the switch fluorescence ratio stood at 1.04 ± 0.028.
On to GAATATTTTT, for which the switch fluorescence ratio was 1.02 ± 0.034.
Turning to GAATCAAAAA, the switch fluorescence ratio was 1 ± 0.088.
Turning to GAATCATACA, the switch fluorescence ratio was 1.05 ± 0.074.
For the sequence GAATCGTAGC, the switch fluorescence ratio is 1 ± 0.022.
On to GAATCGTGAG, for which the switch fluorescence ratio was found to be 0.999 ± 0.04.
The result for GAATCTATTC reads 1.01 ± 0.061; that for GAATCTTAAA, 0.997 ± 0.026.
For GAATGAAGGT, the switch fluorescence ratio was 0.985 ± 0.013.
GAATGAGCGT: the switch fluorescence ratio amounted to 0.9799 ± 0.003.
GAATGAGTTG: the switch fluorescence ratio was 0.977 ± 0.02.
For the sequence GAATGCATTT, the switch fluorescence ratio is 1.02 ± 0.038.
With GAATGCGGGC the figure was 0.99 ± 0.017; with GAATGCTGGT, 0.966 ± 0.023.
As for GAATGGATGG, the switch fluorescence ratio was 1 ± 0.011.
As to GAATGGGGAT, the switch fluorescence ratio was 1.01 ± 0.076.
In the case of GAATGGGGCC, the switch fluorescence ratio came to 1.01 ± 0.035.
The result for GAATGGGTAA reads 1.02 ± 0.033; that for GAATGTATTG, 1.013 ± 0.006; that for GAATGTCTGC, 0.99 ± 0.037.
As to GAATGTTAGT, the switch fluorescence ratio was 0.964 ± 0.013.
The result for GAATTAAATT reads 1.01 ± 0.018; that for GAATTAACAA, 0.999 ± 0.024; that for GAATTAATCG, 0.988 ± 0.039.
GAATTAGAAA: the switch fluorescence ratio turned out to be 0.999 ± 0.014.
As for GAATTCGATC, the switch fluorescence ratio stood at 1.02 ± 0.029.
For GAATTGAGCA, the switch fluorescence ratio stood at 0.996 ± 0.019.
As for GAATTGCTGG, the switch fluorescence ratio is 1.01 ± 0.015.
Turning to GAATTGGCCT, the switch fluorescence ratio was found to be 1.02 ± 0.019.
For the sequence GAATTGTGGG, the switch fluorescence ratio amounted to 0.989 ± 0.039.
With GAATTTGGGA, the switch fluorescence ratio worked out at 0.997 ± 0.013.
Regarding GAATTTGTCC, the switch fluorescence ratio amounted to 0.988 ± 0.013.
As for GAATTTGTTA, the switch fluorescence ratio worked out at 1.026 ± 0.0059.
The result for GACAAAAAAA reads 1.06 ± 0.012.
With GACAAAACTA, the switch fluorescence ratio is 1.16 ± 0.064.
With GACACACAAA, the switch fluorescence ratio was determined as 1.18 ± 0.11.
For GACACACAAG, the switch fluorescence ratio stood at 1.14 ± 0.016.
The result for GACACCAAAT reads 1.039 ± 0.0035.
With GACACGGCAT, the switch fluorescence ratio was 1.13 ± 0.018.
Regarding GACACTCAGG, the switch fluorescence ratio amounted to 1.083 ± 0.0013.
For GACAGAGGTT, the switch fluorescence ratio was 1 ± 0.021.
On to GACAGATCCC, for which the switch fluorescence ratio came out at 0.982 ± 0.014.
With GACAGCTTGG the figure was 1.0064 ± 9.5e-05.
Consider GACAGGGAAC, for which the switch fluorescence ratio was found to be 1.01 ± 0.021.
Regarding GACAGGGGCC, the switch fluorescence ratio was found to be 0.987 ± 0.018.
Consider GACAGGGGCG, for which the switch fluorescence ratio turned out to be 1.19 ± 0.16.
For the sequence GACAGGGTTG, the switch fluorescence ratio was found to be 1.001 ± 0.0062.
On to GACATCGGCA, for which the switch fluorescence ratio is 1.03 ± 0.016.
Take GACATGTAAA: the switch fluorescence ratio worked out at 1.048 ± 0.0023.
GACCAGGGAT: the switch fluorescence ratio was 1.088 ± 0.0031.
The result for GACCAGTAAG reads 0.9819 ± 0.0091; that for GACCCGATTA, 1.02 ± 0.034.
With GACCCGTCAG, the switch fluorescence ratio was found to be 1.01 ± 0.013.
Turning to GACCCTATTC, the switch fluorescence ratio was 1.09 ± 0.05.
With GACCGGGCTT the figure was 0.9753 ± 0.0038; with GACCGGTGGG, 0.9787 ± 0.0065.
With GACCTATTTC the figure was 1.01 ± 0.019.
For the sequence GACCTGGGGC, the switch fluorescence ratio was found to be 0.973 ± 0.068.
The result for GACGAACCGG reads 1.051 ± 0.0095; that for GACGAAGTTT, 1.32 ± 0.7.
GACGAATCCA: the switch fluorescence ratio came out at 1.03 ± 0.046.
The result for GACGACGATG reads 1.016 ± 0.0022.
Turning to GACGACGTTG, the switch fluorescence ratio stood at 1.06 ± 0.026.
The result for GACGAGTTTT reads 1.01 ± 0.022.
For the sequence GACGATGGGT, the switch fluorescence ratio came to 1.029 ± 0.0032.
Regarding GACGATTCTT, the switch fluorescence ratio turned out to be 0.97989 ± 0.00092.
The result for GACGGATGAC reads 1.33 ± 0.15; that for GACGGGAGGG, 1.02 ± 0.02.
GACGGGATGG: the switch fluorescence ratio was determined as 0.993 ± 0.056.
On to GACGGGGACA, for which the switch fluorescence ratio was 1.06 ± 0.023.
Regarding GACGGGGCAG, the switch fluorescence ratio worked out at 0.995 ± 0.015.
The result for GACGGGGGCA reads 0.99948 ± 0.00073; that for GACGGGGGGT, 1 ± 0.041; that for GACGGGTATA, 1.36 ± 0.47.
As to GACGGTAACT, the switch fluorescence ratio stood at 1.14 ± 0.059.
In the case of GACGGTGGCT, the switch fluorescence ratio worked out at 1.01 ± 0.023.
Consider GACGTAATTA, for which the switch fluorescence ratio is 1.5 ± 0.045.
The result for GACGTATATG reads 0.973 ± 0.048; that for GACGTCAGGG, 0.997 ± 0.052.
For the sequence GACGTGGGGC, the switch fluorescence ratio stood at 1.131 ± 0.0064.
As for GACGTGGTAG, the switch fluorescence ratio came out at 1.03 ± 0.016.
With GACGTGTAGT the figure was 1.02 ± 0.025; with GACGTTCTGT, 1.03 ± 0.063; with GACGTTTTGT, 0.96221 ± 0.00058.
With GACTAAAGGT the figure was 1.01 ± 0.013; with GACTAAAGTA, 1.05 ± 0.074; with GACTAAGACT, 1.01 ± 0.026.
With GACTACTAGC, the switch fluorescence ratio was 1.05 ± 0.045.
Consider GACTAGAGGG, for which the switch fluorescence ratio was found to be 0.99 ± 0.034.
With GACTAGGGGT the figure was 1.005 ± 0.0078; with GACTCCAGGC, 1.22 ± 0.069; with GACTCTGGGA, 1.11 ± 0.027.
The result for GACTCTTGCG reads 0.964 ± 0.029; that for GACTGATACC, 1.17 ± 0.035.
In the case of GACTGCTGTG, the switch fluorescence ratio stood at 1.012 ± 0.0085.
Regarding GACTGGGGTT, the switch fluorescence ratio is 0.9891 ± 0.0059.
In the case of GACTGGTAAT, the switch fluorescence ratio was 1.047 ± 0.0072.
As to GACTGTCGG, the switch fluorescence ratio stood at 1.002 ± 0.0068.
For the sequence GACTGTGGCA, the switch fluorescence ratio amounted to 1.013 ± 0.0021.
With GACTGTTAAG the figure was 1.02 ± 0.017; with GACTGTTACA, 1.2 ± 0.017; with GACTGTTGTC, 0.9972 ± 0.0059.
Consider GACTTAGCTT, for which the switch fluorescence ratio stood at 1.046 ± 0.0055.
With GACTTATGGG the figure was 1.04 ± 0.033; with GACTTATTAT, 1.001 ± 0.0041; with GACTTATTGG, 1.02 ± 0.032.
Consider GACTTATTTA, for which the switch fluorescence ratio came out at 1.01 ± 0.043.
GACTTGCTGA: the switch fluorescence ratio worked out at 1 ± 0.049.
Turning to GACTTGGTGC, the switch fluorescence ratio came to 1.06 ± 0.023.
On to GACTTTGGGG, for which the switch fluorescence ratio worked out at 1 ± 0.013.
With GACTTTGTTC, the switch fluorescence ratio is 0.983 ± 0.012.
